Assay results: doi:10.1101/2024.07.08.601072

Molecular target: H2A-H2B dimers (yeast) (yeast) (UniProt P04911)
Assay: native gel or EMSA

Kd: 160 to 330 nM
Substance: Purified Tom1p (Tom1p-Protein A after Protein A removal) (from UniProt Q03280 1-3268) (enzyme)
